# Laboratory results published in patent US20030139374A1 (University of Texas, published 2003).
# B1: anti-VEGF antibody 2C3 (antibody, V domains shown)
# VH: QVQLQESGPELVKPGASVKMSCKASGYTFTSYVFHWVKQKPGQGLEWIGYINPYNDVTKYNEKFKGKATLTSDKSSSTAYMELSSLTSEDSAVYYCASYYGSSYGYYAMDDWGQGTTVTVSS
# VL: DIQLTQSPASLSVSAGEKVTMSCKSSQSLLNSGNQKNYLAWYQQKPGQPPKLLIHGASTRESGVPDRFTGSGSGTDFTLTISSVQAEDLAVYYCQNDYSYPLTFGAGTKLELKR
# B2: H6-tTF219-cys-C′: tTF219 with (His)6 tag and a Cys after amino acid 219 (protein)
# chain: HHHHHHAMALVPRGSGTTNTVAAYNLTWKSTNFKTILEWEPKPVNQVYTVQISTKSGDWKSKCFYTTDTECDLTDEIVKVKQTYLARVFSYPAGNVESTGSAGEPLYENSPEFTPYLETNLGQPTIQSFEQVGTKVNVTVEDRTLVRRNNTFLSLRDVFGKDLIYTLYYWKSSSSGKKTAKTNTNEFLIDVDKGENYCFSVQAVIPSRTVNRKSTDSPVECMGQEKGEFREC
# B3: H6-tTF220-cys-C′: tTF with Ile-Cys after amino acid 219, (His)6 tag (protein)
# chain: HHHHHHAMALVPRGSGTTNTVAAYNLTWKSTNFKTILEWEPKPVNQVYTVQISTKSGDWKSKCFYTTDTECDLTDEIVKDVKQTYLARVFSYPAGNVESTGSAGEPLYENSPEFTPYLETNLGQPTIQSFEQVGTKVNVTVEDERTLVRRNNTFLSLRDVFGKDLIYTLYYWKSSSSGKKTAKTNTNEFLIDVDKGENYCFSVQAVIPSRTVNRKSTDSPVECMGQEKGEFRE
# B4: H6-tTF221-cys-C′: tTF with Ile-Phe-Cys after amino acid 219, (His)6 tag (protein)
# chain: HHHHHHAMALVPRGSGTTNTVAAYNLTWKSTNFKTILEWEPKPVNQVYTVQISTKSGDWKSKCFYTTDTECDLTDEIVKDVKQTYLARVFSYPAGNVESTGSAGEPLYENSPEFTPYLETNLGQPTIQSFEQVGTKVNVTVEDERTLVRRNNTFLSLRDVFGKDLIYTLYYWKSSSSGKKTAKTNTNEFLIDVDKGENYCFSVQAVIPSRTVNRKSTDSPVECMGQEKGEFRE
# B5: H6-tTF221-cys-C′ dimer: chemically conjugated disulfide dimer of H6-tTF221-cys-C′ (protein)
# chain: HHHHHHAMALVPRGSGTTNTVAAYNLTWKSTNFKTILEWEPKPVNQVYTVQISTKSGDWKSKCFYTTDTECDLTDEIVKDVKQTYLARVFSYPAGNVESTGSAGEPLYENSPEFTPYLETNLGQPTIQSFEQVGTKVNVTVEDERTLVRRNNTFLSLRDVFGKDLIYTLYYWKSSSSGKKTAKTNTNEFLIDVDKGENYCFSVQAVIPSRTVNRKSTDSPVECMGQEKGEFRE
# B6: IgG-H6-N′-cys-tTF219: one molecule of IgG linked via SMPT to one or two molecules of H6-N′-cys-tTF219 (conjugate)
# chain: HHHHHHAMALVPRGSCGTTNTVAAYNLTWKSTNFKTILEWEPKPVNQVYTVQISTKSGDWKSKCFYTTDTECDLTDEIVKDVKQTYLARVFSYPAGNVESTGSAGEPLYENSPEFTPYLETNLGQPTIQSFEQVGTKVNVTVEDERTLVRRNNTFLSLRDVFGKDLIYTLYYWKSSSSGKKTAKTNTNEFLIDVDKGENYCFSVQAVIPSRTVNRKSTDSPVECMGQEKGEFRE
# modifications: left off: large carriers
# B7: Fab′-H6-N′-cys-tTF219: Fab′ fragment disulfide-linked to H6-N′-cys-tTF219 (conjugate)
# chain: HHHHHHAMALVPRGSCGTTNTVAAYNLTWKSTNFKTILEWEPKPVNQVYTVQISTKSGDWKSKCFYTTDTECDLTDEIVKDVKQTYLARVFSYPAGNVESTGSAGEPLYENSPEFTPYLETNLGQPTIQSFEQVGTKVNVTVEDERTLVRRNNTFLSLRDVFGKDLIYTLYYWKSSSSGKKTAKTNTNEFLIDVDKGENYCFSVQAVIPSRTVNRKSTDSPVECMGQEKGEFRE
# modifications: left off: another chain or arm of the molecule; large carriers
# B8: tTF219 (G164A): tTF219 with amino acid 164 (Gly) replaced by Ala (protein)
# chain: GSGTTNTVAAYNLTWKSTNFKTILEWEPKPVNQVYTVQISTKSGDWKSKCFYTTDTECDLTDEIVKDVKQTYLARVFSYPAGNVESTGSAGEPLYENSPEFTPYLETNLGQPTIQSFEQVGTKVNVTVEDERTLVRRNNTFLSLRDVFGKDLIYTLYYWKSSSSAKKTAKTNTNEFLIDVDKGENYCFSVQAVIPSRTVNRKSTDSPVECMGQEKGEFRE
# B9: tTF219 (W158R) (protein)
# chain: GSGTTNTVAAYNLTWKSTNFKTILEWEPKPVNQVYTVQISTKSGDWKSKCFYTTDTECDLTDEIVKDVKQTYLARVFSYPAGNVESTGSAGEPLYENSPEFTPYLETNLGQPTIQSFEQVGTKVNVTVEDERTLVRRNNTFLSLRDVFGKDLIYTLYYRKSSSSGKKTAKTNTNEFLIDVDKGENYCFSVQAVIPSRTVNRKSTDSPVECMGQEKGEFRE
# B10: Factor VIIa: recombinant human Factor VIIa (protein)
# chain: ANAFLEELRPGSLERECKEEQCSFEEAREIFKDAERTKLFWISYSDGDQCASSPCQNGGSCKDQLQSYICFCLPAFEGRNCETHKDDQLICVNENGGCEQYCSDHTGTKRSCRCHEGYSLLADGVSCTPTVEYPCGKIPILEKRNASKPQGRIVGGKVCPKGECPWQVLLLVNGAQLCGGTLINTIWVVSAAHCFDKIKNWRNLIAVLGEHDLSEHDGDEQSRRVAQVIIPSTYVPGTTNHDIALLRLHQPVVLTDHVVPLCLPERTFSERTLAFVRFSLVSGWGQLLDRGATALELMVLNVPRLMTQDCLQQSRKVGDSPNITEYMFCAGYSDGSKDSCKGDSGGPHATHYRGTWYLTGIVSWGQGCATVGHFGVYTRVSQYIEWLQKLMRSEPRPGVLLRAPFP
# What was measured:
# Mouse endothelial cells = assay: TNFα, cell based two stage coagulation assay
# Experimental: Mouse endothelial cells were seeded in 48 well tissue culture plates and allowed to adhere overnight. Cells were stimulated with TNFα at the following concentrations: 500 U/ml 100 U/ml; 20 U/ml; 4 U/ml; 0.8 U/ml 0.16 U/ml; and with medium only.
# Endothelial cells were also tested for coagulant activity in a cell based two stage coagulation assay. After incubation with TNFα, cells were washed and incubated with coagulation factor mix (0.5 μg/ml factor VIIa in a mix containing 2.8 μg/ml factor IX, 3.4 μg/ml factor X, 50 μM phospholipids in calcium buffer). The supernatant of wells was transferred into a 96 well ELISA plate. Substrate S2765 was added and Factor Xa generation measured.
# bEnd 3 cells = assay: Cell bound coagulation assay on stimulated bEnd 3 endothelial cells (factor Xa generation); format: cell-based, murine
# [1] = test system: tissue factor on the surface of HUVEC cells; assay: FACS analysis of tissue factor expression on HUVEC; format: cell-based, human; details: TNFα 500 U/ml, LPS 10 μg/ml, VEGF 1 nM; 6 h
# Experimental: To analyze tissue factor expression on the surface of endothelial cells, HUVEC cells were incubated with TNFα (500 U/ml), LPS (10 μg/ml) or vascular endothelial growth factor (VEGF, 1 nM) alone or in combination for 6 h at 37°. Cells were then detached and stained for surface expression of human tissue factor with a sheep-anti-human tissue factor antibody (Haemochrom, Essen, Germany) and an appropriate FITC-conjugated secondary antibody. Fluorescent cells were detected on a flow cytometer (Becton Dickinson, San Jose, Calif.).
# [2] = test system: Mouse bEnd.3 endothelial cells; assay: Phosphatidylserine induction by hydrogen peroxide; format: cell-based
# Experimental: Mouse bEnd.3 endothelial cells were seeded at an initial density of 50,000 cells/well. Twenty-fours later cells were incubated with increasing concentrations of H2O2 (from 10 μM to 500 μM) for 1 hour at 37° C. or left untreated. At the end of the incubation, cells were washed 3 times with PBS containing 0.2% gelatin and fixed with 0.25% glutaraldehyde. Identical wells were either stained with anti-PS IgM or trypsinized and evaluated for viability by the Trypan Blue exclusion test. For the anti-PS staining, after blocking with 2% gelatin for 10 min., cells were incubated with 2 μg/ml of anti-PS antibody, followed by detection with anti-mouse IgM-HRP conjugate.
# [3] = target: T1, recombinant human VEGF (VEGF165) (human, UniProt P15692-4 27-191, biotinylated in the capture and competition ELISAs); assay: capture ELISA, antibody-coated wells, biotinylated VEGF titrated
# T1 construct: also called free VEGF; VEGF-biotin
# T1 sequence (P15692 other isoform, or with tags, fused parts or gaps limits assumed): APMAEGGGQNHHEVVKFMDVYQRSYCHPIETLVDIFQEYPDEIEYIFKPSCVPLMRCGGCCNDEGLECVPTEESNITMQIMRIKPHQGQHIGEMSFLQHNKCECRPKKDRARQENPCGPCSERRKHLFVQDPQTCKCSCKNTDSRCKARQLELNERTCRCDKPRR
# [4] = target: T1, recombinant human VEGF (VEGF165); assay: competition ELISA, 1 nM VEGF on VEGFR1 (Flt-1/Fc) wells, 1000 fold molar excess of 2C3
# VEGF:Flk-1 complex = target: T2, VEGF:Flk-1 complex (human; mouse, UniProt P15692 27-191; P35918 20-762, biotinylated); assay: capture ELISA, antibody-coated wells, soluble VEGF:sFlk-1-biotin titrated
# T2 construct: Formed overnight at 4 C at a molar ratio of sFlk-1 to VEGF of 2.5:1; also called VEGF:receptor complex; VEGF:sFlk-1
# T2 sequence (P15692 other isoform, or with tags, fused parts or gaps limits assumed, chain 1 of 2): as the sequence (P15692 other isoform, or with tags, fused parts or gaps limits assumed) above
# T2 sequence (P35918 20-762 limits assumed, chain 2 of 2): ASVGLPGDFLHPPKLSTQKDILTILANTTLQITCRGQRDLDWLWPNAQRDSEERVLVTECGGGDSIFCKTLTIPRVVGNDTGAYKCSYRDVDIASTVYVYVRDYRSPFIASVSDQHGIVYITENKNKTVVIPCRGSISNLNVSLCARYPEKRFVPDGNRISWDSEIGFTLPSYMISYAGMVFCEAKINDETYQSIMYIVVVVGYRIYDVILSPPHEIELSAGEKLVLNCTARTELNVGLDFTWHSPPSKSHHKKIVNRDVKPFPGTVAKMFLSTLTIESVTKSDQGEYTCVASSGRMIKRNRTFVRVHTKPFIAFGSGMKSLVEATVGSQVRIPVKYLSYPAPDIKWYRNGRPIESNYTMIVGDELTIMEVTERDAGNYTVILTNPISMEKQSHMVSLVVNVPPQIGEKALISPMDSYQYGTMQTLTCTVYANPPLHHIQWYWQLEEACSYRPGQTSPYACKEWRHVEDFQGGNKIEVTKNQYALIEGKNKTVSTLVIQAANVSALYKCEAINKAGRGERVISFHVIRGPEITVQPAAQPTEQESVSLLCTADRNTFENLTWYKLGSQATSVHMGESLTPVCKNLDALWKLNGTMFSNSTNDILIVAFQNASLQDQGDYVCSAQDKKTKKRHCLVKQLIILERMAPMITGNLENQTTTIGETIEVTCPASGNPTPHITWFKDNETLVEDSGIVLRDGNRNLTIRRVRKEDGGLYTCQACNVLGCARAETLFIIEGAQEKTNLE
# [5] = target: T1, recombinant human VEGF (VEGF165); assay: competition ELISA, 1 nM VEGF on VEGFR1 (Flt-1/Fc) wells, 100 fold molar excess of 2C3
# A20 lymphoma cells = assay: In vitro coagulation assay on A20 cells with B21-2/10H10 capture antibody; format: cell-based, mouse; details: for concentration at which plasma coagulated in 50 seconds: bound via B21-2/10H10 to A20 cells; for coagulation times versus tTF219 and Factor VIIa at the same concentrations: Factor VIIa at 1 nM or greater
# [6] = test system: factor X to Xa conversion; assay: Factor Xa production assay on A20 cells; format: cell-based; details: Factors II, VII and IX present
# [7] = test system: HT29 (human colorectal carcinoma) xenograft; assay: HT29 xenograft necrosis after tTF constructs with Factor VIIa; design: species or system BALB/c nu/nu mice; details: mouse, in vivo, iv
molecule,measurement,setting,value
TNFα,fold lower dose for coagulant effect than for VCAM-1 upregulation,Mouse endothelial cells,125 fold
same,TNFα at which an increase in comparison to the negative control could be detected,Mouse endothelial cells; coagulation assay,0.16 U/ml
same,Factor Xa generation,"bEnd 3 cells; stimulation with TNFα (500 U/ml), then incubation with labelled agent (label TNFα = medium only), 0.5 μg/ml factor VIIa",0.35 nkatS2222
same,Factor Xa generation due to Factor VIIa production,"bEnd 3 cells; stimulation with TNFα (label TNFα = medium only), 2 μg/ml factor VII and 0.01 μg/ml factor VIIa, factor VII-only values subtracted",1.23 nkatS2222
same,tissue factor expression on the surface of endothelial cells,[1],upregulated
VEGF,tissue factor expression on the surface of endothelial cells,[1],upregulated
OO [H2O2],cells with PS detected at the cell surface,[2]; concentrations as low as 20 μM,about 50%
same,cell viability,"[2]; low levels of H2O2 (lower than 100 μM), identical to untreated",95%
B1,EC50,[3],0.001 µM
same,percent of VEGF bound to VEGFR1-coated wells relative to no 2C3,[4],105%
same,EC50,VEGF:Flk-1 complex,0.15 µM
same,percent of VEGF bound to VEGFR1-coated wells relative to no 2C3,[5],92%
B2,concentration at which plasma coagulated in 50 seconds,A20 lymphoma cells,3 nM
B3,concentration at which plasma coagulated in 50 seconds,A20 lymphoma cells,0.5 nM
B4,concentration at which plasma coagulated in 50 seconds,A20 lymphoma cells,0.5 nM
same,concentration at which plasma coagulated in 50 seconds,A20 lymphoma cells; listed as H6-tTF221-cys-C′ monomer,1 nM
B5,fold less active at inducing coagulation of plasma than tTF219 / unconjugated or monomeric form,A20 lymphoma cells,4 fold
B6,fold less active at inducing coagulation of plasma than tTF219 / unconjugated or monomeric form,A20 lymphoma cells,5 fold
same,concentration at which plasma coagulated in 50 seconds,A20 lymphoma cells,5 nM
same,activity at inducing Xa formation relative to H6-N′-cys-tTF219 (fold less active),[6],2 fold
B7,activity at inducing Xa formation relative to H6-N′-cys-tTF219 (fold less active),[6],as active as
B8,coagulation times versus tTF219 and Factor VIIa at the same concentrations,A20 lymphoma cells,only marginally slower coagulation times
same,"necrosis, average area as percentage of total tumor area",[7],some necrosis
B9,coagulation times versus tTF219 and Factor VIIa at the same concentrations,A20 lymphoma cells,only marginally slower coagulation times
B10,"necrosis, average area as percentage of total tumor area",[7],some necrosis
